Assay results as given in publication PMC6872814, “Functional interactions between nitrite reductase and nitric oxide reductase from Paracoccus denitrificans” (Scientific Reports, 2019).

Tests used:
[1] = target: the molecule itself; assay: fluorescence correlation spectroscopy (photon count-rate per molecule, CPM); increasing concentrations of cd1NiR-STAR 635 alone; CPM fitted with the ligand-binding model (Eq. 2); apparent; monomer to dimer; points above 15 nM not in the fit
[2] = target: the molecule itself; assay: fluorescence correlation spectroscopy (photon count-rate per molecule, CPM); increasing concentrations of cd1NiR-STAR 635 with 40 nM unlabelled cNOR in the solution; CPM fitted with the ligand-binding model (Eq. 2); apparent; monomer to dimer

B1: cytochrome cd1 nitrite reductase (cd1NiR) from Paracoccus pantotrophus, labelled with Abberior STAR 635 (enzyme, UniProt P72181 30-596, looked up)
chain: QEQVAPPKDPAAALEDHKTRTDNRYEPSLDNLAQQDVAAPGAPEGVSALSDAQYNEANKIYFERCAGCHGVLRKGATGKALTPDLTRDLGFDYLQSFITYGSPAGMPNWGTSGELSAEQVDLMANYLLLDPAAPPEFGMKEMRESWKVHVAPEDRPTQQENDWDLENLFSVTLRDAGQIALIDGATYEIKSVLDTGYAVHISRLSASGRYLFVIGRDGKVNMIDLWMKEPTTVAEIKIGSEARSIETSKMEGWEDKYAIAGAYWPPQYVIMDGETLEPKKIQSTRGMTYDEQEYHPEPRVAAILASHYRPEFIVNVKETGKILLVDYTDLDNLKTTEISAERFLHDGGLDGSHRYFITAANARNKLVVIDTKEGKLVAIEDTGGQTPHPGRGANFVHPTFGPVWATSHMGDDSVALIGTDPEGHPDNAWKILDSFPALGGGSLFIKTHPNSQYLYVDATLNPEAEISGSVAVFDIKAMTGDGSDPEFKTLPIAEWAGITEGQPRVVQGEFNKDGTEVWFSVWNGKDQESALVVVDDKTLELKHVIKDERLVTPTGKFNVYNTMTDTY
modifications: Abberior STAR 635 (amino-reactive dye, 5-fold molar excess; sites not stated); heme c and heme d1
notes: cytochrome cd1 nitrite reductase (cd1NiR), Paracoccus pantotrophus (G6), soluble periplasmic protein; 97% identical to the P. denitrificans enzyme; STAR 635-labelled in the fluorescence experiments; the activity assays (functional rows) used the same protein unlabelled; Written as the monomer chain; also called cd1NiR-STAR 635; cd1NIR-STAR 635
Question: Which results are given for B1?
Answer: Kd [1]: 3.5 ± 0.1 nM; Kd [2]: 5.3 ± 0.2 nM
